# According to PMC9035363 (Cell Reports, 2022):
# Like-named read-outs stand apart in the source and are kept apart here.
# B1: LY-CoV1404 (bebtelovimab), full-length human IgG1 mAb (antibody, V domains shown)
# VH: QITLKESGPTLVKPTQTLTLTCTFSGFSLSISGVGVGWLRQPPGKALEWLALIYWDDDKRYSPSLKSRLTISKDTSKNQVVLKMTNIDPVDTATYYCAHHSISTIFDHWGQGTLVTVSS
# VL: QSALTQPASVSGSPGQSITISCTATSSDVGDYNYVSWYQQHPGKAPKLMIFEVSDRPSGISNRFSGSKSGNTASLTISGLQAEDEADYYCSSYTTSSAVFGGGTKLTVL
# B2: LY-CoV1404 Fab (papain digestion) (Fab, V domains shown)
# VH: QITLKESGPTLVKPTQTLTLTCTFSGFSLSISGVGVGWLRQPPGKALEWLALIYWDDDKRYSPSLKSRLTISKDTSKNQVVLKMTNIDPVDTATYYCAHHSISTIFDHWGQGTLVTVSS
# VL: QSALTQPASVSGSPGQSITISCTATSSDVGDYNYVSWYQQHPGKAPKLMIFEVSDRPSGISNRFSGSKSGNTASLTISGLQAEDEADYYCSSYTTSSAVFGGGTKLTVL
# B3: REGN10987 (imdevimab) (antibody, V domains shown)
# VH: QVQLVESGGGVVQPGRSLRLSCAASGFTFSNYAMYWVRQAPGKGLEWVAVISYDGSNKYYADSVKGRFTISRDNSKNTLYLQMNSLRTEDTAVYYCASGSDYGDYLLVYWGQGTLVTVSS
# VL: QSALTQPASVSGSPGQSITISCTGTSSDVGGYNYVSWYQQHPGKAPKLMIYDVSKRPSGVSNRFSGSKSGNTASLTISGLQSEDEADYYCNSLTSISTWVFGGGTKLTVL
# Legend:
# Assay in all cases: SPR
# [1] = biological target: T1, SARS-CoV-2 S protein, soluble trimer (SARS-CoV-2, Wuhan reference …, UniProt P0DTC2, stabilised)
# [2] = biological target: T1, SARS-CoV-2 S protein, soluble trimer; remark: listed apart in the source
# [3] = biological target: T2, SARS-CoV-2 D614G S protein, soluble trimer (SARS-CoV-2, Wuhan sequence with D614G, UniProt A0A6H1PJZ3, D614G)
# [4] = biological target: T2, SARS-CoV-2 D614G S protein, soluble …; remark: listed apart in the source
binder,measurement,setting,value
B1,Kd,[1],220 pM
same,Kd,[2],74.5 pM
same,Kd,[3],46.1 pM
B2,Kd,[4],790 pM
B3,binding result,[1],binds
